The target in the test is prostate-specific membrane antigen (PSMA), dimeric isoform (UniProt Q04609). As to the kind of experiment: phage-displayed ELISA on 1 µg/mL PSMA dimer, HRP activity.
Chain of prostate-specific membrane antigen (PSMA), dimeric isoform (Q04609 44-750): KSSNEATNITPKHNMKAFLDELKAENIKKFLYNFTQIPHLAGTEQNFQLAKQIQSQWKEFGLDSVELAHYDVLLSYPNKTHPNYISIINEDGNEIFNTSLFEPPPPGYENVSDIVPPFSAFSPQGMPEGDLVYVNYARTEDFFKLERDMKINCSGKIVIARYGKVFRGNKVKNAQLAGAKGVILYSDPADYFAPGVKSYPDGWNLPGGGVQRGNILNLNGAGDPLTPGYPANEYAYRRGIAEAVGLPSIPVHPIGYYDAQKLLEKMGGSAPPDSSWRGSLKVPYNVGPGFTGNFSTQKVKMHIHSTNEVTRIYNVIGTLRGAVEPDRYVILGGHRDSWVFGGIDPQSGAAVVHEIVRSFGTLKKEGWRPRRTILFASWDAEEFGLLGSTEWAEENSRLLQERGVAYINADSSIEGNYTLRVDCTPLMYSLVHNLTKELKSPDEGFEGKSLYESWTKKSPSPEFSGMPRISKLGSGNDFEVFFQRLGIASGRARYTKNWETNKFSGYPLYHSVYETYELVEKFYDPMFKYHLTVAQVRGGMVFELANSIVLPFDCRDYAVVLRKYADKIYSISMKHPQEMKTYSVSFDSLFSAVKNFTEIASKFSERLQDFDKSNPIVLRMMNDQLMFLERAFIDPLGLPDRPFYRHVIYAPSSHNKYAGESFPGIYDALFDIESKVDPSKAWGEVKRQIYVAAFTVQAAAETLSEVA

By EC50 (read off the curve) is commonly meant the concentration at which the effect is half-maximal. A high value points to lower potency in that assay. Take “phage-displayed peptide 1, CALCEFLG [SEQ ID NO: 1]”: the EC50 (read off the curve) is 200 pM.

These data come from patent publication US8986655.
